# According to the DeepSol protein solubility set:
# Assay: soluble on expression in E. coli; label from the status in PepcDB or PDB records
row,Sequence,soluble on expression in E. coli
1,MGHHHHHHSHMSCTVYAKTQQAKFLTWQFDGEYRGDDYTATLTLGNPDLIGESVIMVAHFLQSLTHRLVLGGELVYHRRPGEEGAILTLAGKYSAVHWVATLNVGSGGAHASYYHRANEQVQVGVEFEANTRLQDTTFSFGYHLTLPQANMVFRGLVDSNWCVGAVLEKKMPPLPVTLALGAFLNHWRNRFHCGFSITVG,not soluble
2,MLEKYGRCRKRRLLKEVVLILLVAAVQPVLSSSKSTPEAQLTDVELTCPDDWIRHGTKCYLPFNIHQSWPFAMTTCQRYGSTLAKIQTGSENQFIASLLSKPGKPTEGKEYWIGLTVEVLDDDELYLWSDGTPTSRYVGFWRQDQPNFLNGSCALGKVERKDLEWRLDTCNLLRRFVCERPACVQGSYFCSSGSCISESKKCNGHNDCDDGSDEQNCPSAFQPNCRTYEKGESGQLSSTNYPNSYDPNLNCRHVLEGPINSRIELTIEHFETEPDFDILTVLDGGPAENSTTVIKRLSGSMETVQTITSATNMMIVQFRTDAQSNARGWQLKWRAVPFTCGGHFTAQAYIQSFVSPGYPKTFANGAECVWTVESTPGQVVSLIMKSGKTWG,not soluble
3,MGRVVLWLLLLALLPAYAQETYDWIVVLGAAQYGGRPSPALERRLQAALHLFREGRGRRIAVAGGKAPEDLYSEGEVGCRYLAARGVPEEALFCETRSRSTYENLLFLKPHLEGRLLLVTDAPHLPRALFLARLLGLEAEGYPVPGNYPLGYWAKEALYRLWLYLGLRPQGVFSSRFNASRAAALEHHHHHH,not soluble
4,MKFNKSTMEANGDTSACNGYSDKQRKDVRVWCDGCYDMVHFGHANSLRQAKALGDKVIVGIHTDEEITKHKGPPVFTEEERVKMVKGIKWVDEVVLGAPYVTTLDVLDQNNCDFCVHGDDITMTAEGVDTYHLVKSANRYKEVKRTAGVSTTD,not soluble
5,TPRGYTTWVNTIQTNGLLNEASQNLFGILSVDCTSEEMNAFLDVVPGQAGQKQILLDAIDKIADDWDNRHPLPNAPLVAPPQGPIPMTARFIRGLGVPRERQMEPAFDQFRQTYRQWIIEAMSEGIKVMIGKPKAQNIRQGAKEPYPEFVDRLLSQIKSEGHPQEISKFLTDTLTIQNANEECRNAMRHLRPEDTLEEKMYACRDIG,soluble
6,MSDGHHNGHEHVPSRQRRRFPGISSRAYEHPADRSALVALRKLSGFDTVFKALSGLLPERSLRLLFLSDSVRVSDRQFAHLNVMLRDACYILDLEKVPPMYVNQDPVPNAMCIGLDEPIIVVTTGLVELLDEEEMRAVVGHEVGHALSGHAVYRTILLFLTSLAVRVAWIPLGNVAIMAIVTALREWFRKSELSADRAGLLVGQDLQASMRGLMKIAGGNHLHEMNVDAFLEQAEEYEAGGDLRDSVLKILNVLPRSHPFTTVRAAELKKWAASRDYQRIMDGHYPRRDEDRNTSVRDSFRESASHYATHVRSSKDPLMKLVNDIAGGAGDLGDRMRRGFGGFTGSQPRPPEDDGGPAQGPGGSGRPDGPDRPEGPEGSGGSEEPGGDGPESPRDGSPRDGALEHHHHHH,not soluble
7,MNELFLSELKSADKDLLQKLVLIEEHVFADSAQEPVQTEASLDSLELIISQCIAIISEIESPLEKAEALLNELYFQHLFIDRYQTRWPISAYSVAKGLNQRAMSPVVKAALVKEIITACGFETDLVFIPNKIMVRLCCDEQYAIIFDAITGESLDWTELDVRLDELDGDPGEQELKAIDDSVALVEHLSALKNVLIHEQAFDKALTCVDVILSLNPDDPLQRRDRGFLLHQLDCFKVAVDDYRYFVEQCPKDPAAKILKIQLEKIDVGNNVLHLEHHHHHH,soluble
8,MRPISNLNTSAATYIPPQQLPSSCLETLTLLVQMNNYIKRDADYSTGMAVAPLVPEEVHLLAAAMTTELHRHQFQPVVSANDLQLPEPFTFDVAGFTITFTKTQEHDNTGNLMKIAVSKSGVCTSTNITLELFHSIVTTLMSRSQYGTFDLWSVRPILTDESQNRVHEAARYSPAQQYGREETHFTNNGMREFGNMSPLAWRNDVELQQSCNTSNIPPNAANDDINNTRQTIEDQPEADEPQQYVKLTVDDMRKWAAMDQQARNALQGVSGWCTRNHFNIKNARNYLTDHGLNYAGQVKVNRPHEYAKFTLEHIRQWAALNKHVRKPVGYLEKWCKERNLAPTTARNYLKNDGLTALGELKLTGPQKWVTFTFGDIVQWANMTQEERNSAGGAEKWSKKRGFQWSTARSYLKSSGVTKQGARKLAWLKNSGNMSNPFYLAQPTSRRT,not soluble
9,SLRAFRRATDVKTMAALDIQISVEAEGWSSEENLAAFATKVLNAAVDFLKREEEQPFPKMPVELSLVFTDDENIREINAEWRDKDKATNVLSFPAFPLEPGGMPGPMLGDIVIARETVEREALELDKSFEDHLTHLLVHGFLHLFGYDHMDEEEAEEMESLETRILAVLGLSDPYAGQE,not soluble
10,MGCGLRKLEDPDESSPGKIFSTLKRPQVETKTEFAYEYALLDFTLQASTNPDVIKINSVLDIVAKVEDYYLKGYVVGAIHPVIQPVGQRKHLPASHLYRAVLSRLKLSPKHSAAGGQRRARLVMEECPLTCEAQANDAAKELMDKINAAAKRGMKFVGLVSQCYLPSMHCNGASHDGVAESGLHVRQDSQDNCKGWNEGALGGHLSESGVEEEPQHESGQHQTERNSSPSYANPKRGEAPDGKLYMVFNAFEEDAASWAYQEGVLSMKVTRKGAVISALDANWLELTTFYYKQGFSLIDSFVCWETPKVAKLEAFQLSVSDKLPKGKQKYSFQSLSGIPASGLA,soluble
11,GSHMTGISRETSSDVALASHILTALREKQAPELSLSSQDLELVTKEDPKALAVALNWDIKKTETVQEACERELALRLQQTQSLHSLRSISASKASPPGDLQNPKRARQDPT,soluble
12,MKQVCVLGNGQLGRMLRQAGEPLGIAVWPVGLDAEPTAVPVQQSVITAEIERWPETALTRELARHPAFVNRDVFPIIADRLTQKQLFDKLGLATAPWQLLTSTDEWSGIFDRLGELAIIKRRVGGYDGRGQWRLRADETGQLPDDCYGECIVERGIHFSGEVSLVGARAHDGSTVFYPLTHNLHQDGILRTSVAFPQANAEQQEQAESMLSAIMQALNYVGVMAMECFITPEGLLINELAPRVHNSGHWTQNGASISQFELHLRAITGLPLPAPVINAPSVMINLIGSELNYDWLKLPLVHLHWYDKAVRPGRKVGHLNLTDSDTSRLSATLEALSPLLPGEYASGIIWAQSKLK,not soluble
13,SFRDCAEVFKSGHTTNGIYTLTFPNSTEEIKAYCDMEAGGGGWTIIQRREDGSVDFQRTWKEYKVGFGNPSGEYWLGNEFVSQLTNQQRYVLKIHLKDWEGNEAYSLYEHFYLSSEELNYRIHLKGLTGTAGKISSISQPGNDFSTKDGDNDKCICKCSQMLTGGWWFDACGPSNLNGMYYPQRQNTNKANGIKWAAWKGSGYSLKATTMMIRPADF,soluble
14,GPLGSMDQSVAIQETLVEGEYCVIAVQGVLCKGDSRQSRLLGLVRYRLENDAQEHALFLYTHRRMAITGDDVSLDQIVPLSKDFMLEEVSPDGELYILGSDVTVQLNTAELKLVFQLPFGSHTRTFLQEVARACPGFDPETRDPEFEWLSRHTCAEPDAES,soluble
15,MAHHHHHHMHLQIVCLTDEVREMYKHHKTHHEGDSGLDLFIIKDEILKPKSTTFVKLGIKAIALQYKSSYYHKSEANANANANANGKDAPVGMGGVNAKESCAPHQKNPEIVNTSYLLFPRSSISKTPLRLANSIGLIDAGYRGELIAALDNTSEEEYLIKKNDKLVQLVSFTGEPLSFELVDELDETSRGEGGFGSTSNK,soluble
